# Experimental data: PMC11274882, “RNA Binding Properties of SOX Family Members”
# T1: SOX30 HMG-box (UniProt O94993 335-423)
# T1 sequence: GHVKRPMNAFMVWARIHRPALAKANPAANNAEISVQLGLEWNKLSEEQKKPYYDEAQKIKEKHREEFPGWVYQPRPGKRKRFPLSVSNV
# B1: 60-mer ssDNA (ssDNA)
# DNA: GTTAGAGGTGCCCCACAGGCGGCGGTTAGTATTCCCCGCCGCCTGGGGCACCGGGGCAC
# B2: 12-mer ssDNA (ssDNA)
# DNA: ATCGATCGATCG
# B3: 40-mer RNA, ES2 lncRNA hairpin Loop A (structured_RNA)
# RNA: GGUCGCCGUGGCCACUUCGAAAGGGGUGGAAAGGGCGACC
# B4: 22-mer ssDNA (ssDNA)
# DNA: CCCCATCTTAGTATATTAGTTA
# What was measured:
# [1] = target: SOX21 HMG-box (UniProt Q9Y651 6-94); assay: EMSA; complex stays in well; FP: 50 mM Tris, 125 mM NaCl, pH 8.0, 80 nM RNA, temperature not stated; EMSA: equal volumes of 100 uM protein and ssDNA, room temperature 15 min, 1.5% agarose; conditions: protein: recombinant; tags: 6xHis; named 60-mer; length as printed may differ
# [2] = target: T2, SOX2 HMG-box (UniProt P48431 39-127); assay: as above; conditions: protein: recombinant; named 60-mer; length as printed may differ
# [3] = target: SRY HMG-box (UniProt Q05066 58-140); assay: EMSA; FP: 50 mM Tris, 125 mM NaCl, pH 8.0, 80 nM RNA, temperature not stated; EMSA: equal volumes of 100 uM protein and ssDNA, room temperature 15 min, 1.5% agarose; conditions: protein: recombinant; tags: 6xHis; named 60-mer; length as printed may differ
# [4] = target: SOX15 HMG-box (UniProt O60248 47-135); assay: as above; conditions: protein: recombinant; tags: 6xHis; named 60-mer; length as printed may differ
# [5] = target: T3, SOX17 HMG-box WT (UniProt Q9H6I2 66-145); assay: as above; conditions: protein: recombinant, tags: 6xHis
# [6] = target: SOX9 HMG-box (UniProt P48436 103-183); assay: as above; conditions: protein: recombinant; tags: 6xHis; named 60-mer; length as printed may differ
# [7] = target: SOX11 HMG-box (UniProt P35716 47-135); assay: as above; conditions: protein: recombinant; tags: 6xHis; named 60-mer; length as printed may differ
# [8] = target: SOX6 HMG-box (UniProt P35712 619-707); assay: as above; conditions: protein: recombinant; named 60-mer; length as printed may differ
# [9] = target: T1, SOX30 HMG-box; assay: as above; conditions: protein: recombinant; tags: 6xHis; named 60-mer; length as printed may differ
# [10] = target: T3, SOX17 HMG-box WT; assay: NMR HSQC titration; 100 uM protein, 25-100 uM ssDNA; shifts at R125-R138, I68, A74, M76, E97, K100, W106; FP: 50 mM Tris, 125 mM NaCl, pH 8.0, 80 nM RNA, temperature not stated; EMSA: equal volumes of 100 uM protein and ssDNA, room temperature 15 min, 1.5% agarose; conditions: protein: recombinant; tags: 6xHis
# [11] = target: T4, SOX17 dCN HMG-box (UniProt Q9H6I2 74-137); assay: fluorescence polarisation; FP: 50 mM Tris, 125 mM NaCl, pH 8.0, 80 nM RNA, temperature not stated; EMSA: equal volumes of 100 uM protein and ssDNA, room temperature 15 min, 1.5% agarose; conditions: protein: recombinant; tags: 6xHis; label: 3' FAM; hairpin
# [12] = target: T5, SOX17 dC HMG-box (UniProt Q9H6I2 66-137); assay: as above; conditions: protein: recombinant; tags: 6xHis; label: 3' FAM; hairpin
# [13] = target: T3, SOX17 HMG-box WT; assay: as above; conditions: protein: recombinant; tags: 6xHis; label: 3' FAM; hairpin
# [14] = target: T1, SOX30 HMG-box; assay: as above; conditions: protein: recombinant; tags: 6xHis; label: 3' FAM; hairpin
# [15] = target: T2, SOX2 HMG-box; assay: as above; conditions: protein: recombinant; label: 3' FAM; hairpin
# [16] = target: T4, SOX17 dCN HMG-box; assay: EMSA; FP: 50 mM Tris, 125 mM NaCl, pH 8.0, 80 nM RNA, temperature not stated; EMSA: equal volumes of 100 uM protein and ssDNA, room temperature 15 min, 1.5% agarose; conditions: protein: recombinant; tags: 6xHis
# [17] = target: T5, SOX17 dC HMG-box; assay: as above; conditions: protein: recombinant; tags: 6xHis
# [18] = target: SOX17 dN HMG-box (UniProt Q9H6I2 74-145); assay: as above; conditions: protein: recombinant; tags: 6xHis
# Chain of SOX17 dN HMG-box (Q9H6I2 74-145): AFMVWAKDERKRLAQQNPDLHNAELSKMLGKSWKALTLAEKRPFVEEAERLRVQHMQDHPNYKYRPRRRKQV
# T3 sequence (Q9H6I2 66-145): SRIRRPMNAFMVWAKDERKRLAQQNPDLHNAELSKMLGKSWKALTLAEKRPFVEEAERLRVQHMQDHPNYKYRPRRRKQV
# T2 sequence (P48431 39-127): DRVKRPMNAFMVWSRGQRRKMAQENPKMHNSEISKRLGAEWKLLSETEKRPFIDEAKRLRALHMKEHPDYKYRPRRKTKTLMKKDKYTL
# T4 sequence (Q9H6I2 74-137): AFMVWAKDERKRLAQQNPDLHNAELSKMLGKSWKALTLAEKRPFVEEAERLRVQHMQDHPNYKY
# T5 sequence (Q9H6I2 66-137): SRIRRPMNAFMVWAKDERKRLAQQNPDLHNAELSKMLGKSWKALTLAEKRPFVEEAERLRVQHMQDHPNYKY
# Chain of SOX15 HMG-box (O60248 47-135): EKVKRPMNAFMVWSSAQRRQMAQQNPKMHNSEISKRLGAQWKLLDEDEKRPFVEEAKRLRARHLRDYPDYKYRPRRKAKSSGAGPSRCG
# Chain of SOX11 HMG-box (P35716 47-135): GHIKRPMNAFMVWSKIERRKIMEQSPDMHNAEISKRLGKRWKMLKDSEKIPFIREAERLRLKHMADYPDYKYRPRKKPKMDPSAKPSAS
# Chain of SOX9 HMG-box (P48436 103-183): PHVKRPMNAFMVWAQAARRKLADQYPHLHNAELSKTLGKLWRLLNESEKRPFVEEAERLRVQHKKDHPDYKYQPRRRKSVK
# Chain of SOX6 HMG-box (P35712 619-707): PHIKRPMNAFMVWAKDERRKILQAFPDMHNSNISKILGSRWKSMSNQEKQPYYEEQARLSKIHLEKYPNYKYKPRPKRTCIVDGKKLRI
# Chain of SOX21 HMG-box (Q9Y651 6-94): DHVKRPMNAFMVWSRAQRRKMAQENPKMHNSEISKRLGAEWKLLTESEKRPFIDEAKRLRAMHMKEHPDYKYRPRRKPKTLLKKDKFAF
# Chain of SRY HMG-box (Q05066 58-140): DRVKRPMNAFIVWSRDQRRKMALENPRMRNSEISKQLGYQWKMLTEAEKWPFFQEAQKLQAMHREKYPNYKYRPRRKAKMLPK
binder,measurement,setting,value
B1,binding result,[1],binds
same,binding result,[2],binds
same,binding result,[3],binds
same,binding result,[4],binds
same,binding result,"[5]; named 60-mer, length as printed may differ",binds
same,binding result,[6],binds
same,binding result,[7],binds
same,binding result,[8],binds
same,binding result,[9],no binding
B2,binding result,[10],binds
B3,binding result,[11],no binding
same,binding result,[12],no binding
same,Kd,[13],~327 nM
same,binding result,[14],no binding
same,Kd,[15],~57 nM
B4,binding result,[16],no binding
same,binding result,[17],no binding
same,binding result,[5],binds
same,binding result,[18],binds
